Measurements: patent publication US20220162341A1 (published 2022)

T1: ASPH (aspartyl (asparaginyl) β-hydroxylase) (Homo sapiens (Human)) (UniProt Q12797)
T1 sequence: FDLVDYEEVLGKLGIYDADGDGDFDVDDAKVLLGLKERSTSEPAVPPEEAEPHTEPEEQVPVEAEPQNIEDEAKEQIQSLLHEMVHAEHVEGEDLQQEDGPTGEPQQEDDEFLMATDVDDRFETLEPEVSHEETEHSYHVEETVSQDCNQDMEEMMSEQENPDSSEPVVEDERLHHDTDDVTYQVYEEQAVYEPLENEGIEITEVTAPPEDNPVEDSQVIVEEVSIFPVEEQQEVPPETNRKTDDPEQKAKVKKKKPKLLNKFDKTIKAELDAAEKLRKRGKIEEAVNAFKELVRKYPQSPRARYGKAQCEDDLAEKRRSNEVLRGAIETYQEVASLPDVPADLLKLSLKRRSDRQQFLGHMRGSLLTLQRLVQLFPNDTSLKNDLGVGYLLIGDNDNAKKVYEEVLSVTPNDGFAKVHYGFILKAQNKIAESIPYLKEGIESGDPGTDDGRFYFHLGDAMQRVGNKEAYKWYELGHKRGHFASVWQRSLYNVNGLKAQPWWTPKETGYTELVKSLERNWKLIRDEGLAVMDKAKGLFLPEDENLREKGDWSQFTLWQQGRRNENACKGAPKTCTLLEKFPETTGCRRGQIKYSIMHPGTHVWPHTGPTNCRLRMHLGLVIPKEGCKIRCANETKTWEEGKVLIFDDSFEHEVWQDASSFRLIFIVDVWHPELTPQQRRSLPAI

T2: ASPH (aspartyl (asparaginyl) β-hydroxylase) (Homo sapiens (Human), UniProt Q12797 75-758, limits assumed)
T2 construct: The antibodies were raised against a peptide of human ASPH; also called the ASPH protein
T2 sequence: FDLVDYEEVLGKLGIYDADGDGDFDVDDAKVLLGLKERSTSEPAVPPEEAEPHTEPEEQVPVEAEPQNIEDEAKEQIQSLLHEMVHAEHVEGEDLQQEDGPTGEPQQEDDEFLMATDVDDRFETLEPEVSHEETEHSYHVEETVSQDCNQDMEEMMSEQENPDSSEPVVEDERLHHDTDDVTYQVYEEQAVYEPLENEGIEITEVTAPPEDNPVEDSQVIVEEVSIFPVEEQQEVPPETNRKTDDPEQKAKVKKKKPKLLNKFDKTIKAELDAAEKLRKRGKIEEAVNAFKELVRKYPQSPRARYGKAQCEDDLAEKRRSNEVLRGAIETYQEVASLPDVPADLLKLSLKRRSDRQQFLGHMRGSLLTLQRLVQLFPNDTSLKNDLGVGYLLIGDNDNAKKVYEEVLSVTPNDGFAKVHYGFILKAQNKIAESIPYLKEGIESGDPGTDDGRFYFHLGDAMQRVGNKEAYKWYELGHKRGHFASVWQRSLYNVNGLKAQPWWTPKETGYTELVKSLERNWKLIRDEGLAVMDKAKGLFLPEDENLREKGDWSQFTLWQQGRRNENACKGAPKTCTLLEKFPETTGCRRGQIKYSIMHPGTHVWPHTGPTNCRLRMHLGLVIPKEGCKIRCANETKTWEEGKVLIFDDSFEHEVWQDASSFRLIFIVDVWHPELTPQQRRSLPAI


Tests used:
[1] = target: T1, ASPH (aspartyl (asparaginyl) β-hydroxylase) (Homo sapiens (Human)); assay: SPR (SensiQ Pioneer), antibody captured via Protein G, ASPH as analyte
[2] = target: T2, ASPH (aspartyl (asparaginyl) …); assay: as above

Row | Kd [1] | koff [1] | kon [1] | Kd [2] | kon [2] | Binder
1 | 144 nM | 0.00243 s⁻¹ | 16800 M⁻¹ s⁻¹ |  |  | 5H4/5K3 (antibody, V domains shown) VH: QSLEESGGDLVKPGASLTLTCKASGFDFSSNAMCWVRQAPGKGPEWIACIDNGDGSTDYATWAKGRFTISKTSSTTVTLQMTSLTAADTATYFCTRNFNLWGQGTLVTVSS VL: AQVLTQTASSVSAAVGGTVTISCQSSQSVYDNNRLAWFQQKPGQPPKLLIYETSKLASGVPLRFKGSGSGTQFTLTISDLECDDAATYYCLGSYSGYIYTFGGGTEVVVKG
2 |  |  |  | 118 nM | 20400 M⁻¹ s⁻¹ | 5H1/5K1 (antibody, V domains shown) VH: QSLEESGGDLVKPGASLTLTCKASGFDFSSNAMCWVRQAPGKGPEWIACIDNGDGSTDYATWAKGRFTISKTSSTTVTLQMTSLTAADTATYFCTRNFNLWGQGTLVTVSS VL: AQVLTQTASSVSAAVGGTVTISCQSSQSVYDNNRLAWFQQKPGQPPKLLIYETSKLASGVPLRFKGSGSGTQFTLTISDLECDDAATYYCLGSYSGYIYTFGGGTEVVVK
